The text below walks through data of patent US20110237779A1.

This experiment addresses human IgE (human) (UniProt P01854). The experiment can be described thus: phage ELISA, solution competition: Fab-phage incubated with serially diluted IgE, unbound phage captured on IgE-coated wells; IC50 used as affinity estimate.

human IgE (human), sequence (P01854 other isoform, or with tags, fused parts or gaps): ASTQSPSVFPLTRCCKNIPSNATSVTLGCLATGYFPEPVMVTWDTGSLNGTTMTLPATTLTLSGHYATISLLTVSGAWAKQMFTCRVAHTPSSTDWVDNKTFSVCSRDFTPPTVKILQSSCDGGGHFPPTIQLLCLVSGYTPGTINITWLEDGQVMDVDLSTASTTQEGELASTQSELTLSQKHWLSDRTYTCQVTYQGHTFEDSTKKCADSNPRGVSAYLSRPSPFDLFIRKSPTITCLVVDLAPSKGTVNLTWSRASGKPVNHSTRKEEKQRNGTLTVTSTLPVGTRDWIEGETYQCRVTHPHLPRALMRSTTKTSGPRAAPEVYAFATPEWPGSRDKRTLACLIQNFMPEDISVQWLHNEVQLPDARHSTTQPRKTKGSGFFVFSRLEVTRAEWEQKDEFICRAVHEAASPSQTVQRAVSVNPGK

Turning to “Mae11-based hypervariable region graft with S34K and W35L in CDR-H1 of the VH domain (Fab displayed on phage)”, the IC50 was 4 nM.
